In publication PMC9896449:

Tests used:
[1] = molecular target: BiShAb0201 (ShAb02 VNAR - (GGGGS)5 - ShAb01 VNAR - human IgG1 Fc) (nurse shark (Ginglymostoma cirratum)); experiment: BLI
[2] = molecular target: ShAb01H02K (knob-in-hole heterodimer of ShAb01-Fc and ShAb02-Fc) (nurse shark (Ginglymostoma cirratum)); experiment: BLI

Substance | Kd [1] [nM] | koff [1] [s⁻¹] | kon [1] [M⁻¹ s⁻¹] | Kd [2] [nM] | koff [2] [s⁻¹] | kon [2] [M⁻¹ s⁻¹]
SARS-CoV-2 RBD B.1.1.529.2, Omicron BA.2 (from UniProt P0DTC2 331-527) (domain or fragment) | 33.2 | 0.000749 | 22600 | 24.1 | 0.00186 | 77000
SARS-CoV-2 RBD B.1.1.529, Omicron BA.1 (from UniProt P0DTC2 331-527) (domain or fragment) | 15.1 | 0.00154 | 102000 | 24.5 | 0.00175 | 71300
SARS-CoV-2 RBD B.1.1.529.2.12.1, Omicron BA.2.12.1 (from UniProt P0DTC2 331-527) (domain or fragment) | 46.9 | 0.000922 | 19700 | 17.4 | 0.00171 | 98500
SARS-CoV-2 RBD Omicron BA.4/5 (from UniProt P0DTC2 331-527) (domain or fragment) | 14.9 | 0.000767 | 51500 | 5.6 | 0.000692 | 123000
